The target of the test is tau-CFP/YFP protein biosensors (UniProt P10636). As to the kind of experiment: cell-based or functional assay.
Chain of tau-CFP/YFP protein biosensors (P10636 561-689, form in doubt): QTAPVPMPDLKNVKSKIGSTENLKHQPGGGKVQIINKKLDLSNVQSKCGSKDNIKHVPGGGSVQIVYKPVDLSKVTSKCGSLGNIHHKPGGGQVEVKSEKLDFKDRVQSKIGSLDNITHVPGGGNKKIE
Chain of recombinant full-length (2N,4R) tau fibrils, preparation A (8 µM heparin, 37° C.) (P10636 other isoform, or with tags, fused parts or gaps limits assumed): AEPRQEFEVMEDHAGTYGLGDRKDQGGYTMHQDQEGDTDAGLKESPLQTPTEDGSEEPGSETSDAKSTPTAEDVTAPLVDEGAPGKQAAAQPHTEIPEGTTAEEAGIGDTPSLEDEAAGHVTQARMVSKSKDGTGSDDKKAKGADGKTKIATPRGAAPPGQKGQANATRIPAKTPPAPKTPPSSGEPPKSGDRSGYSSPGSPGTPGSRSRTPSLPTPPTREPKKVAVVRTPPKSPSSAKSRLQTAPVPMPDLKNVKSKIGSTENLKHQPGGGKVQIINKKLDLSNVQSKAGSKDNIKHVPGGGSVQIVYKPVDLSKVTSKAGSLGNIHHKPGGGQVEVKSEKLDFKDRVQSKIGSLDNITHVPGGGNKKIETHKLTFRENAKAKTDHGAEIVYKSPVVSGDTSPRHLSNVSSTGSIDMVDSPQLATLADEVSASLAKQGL
Chain of recombinant full-length (2N,4R) tau fibrils, preparation C (50 µM octadecyl sulfate, 37° C.) (P10636 other isoform, or with tags, fused parts or gaps limits assumed): as above
Chain of recombinant full-length (2N,4R) tau fibrils, preparation B (8 µM heparin, 22° C.) (P10636 other isoform, or with tags, fused parts or gaps limits assumed): as above
“recombinant full-length (2N,4R) tau fibrils, preparation C (50 µM octadecyl sulfate, 37° C.) (from UniProt P10636 2-441)” had an EC50 (pM) of seeding, FRET flow cytometry in biosensor cell line of 141 pM and a Plateau (fold increase) of seeding, FRET flow cytometry in biosensor cell line (fold increase) of 4.19.

In the case of “recombinant full-length (2N,4R) tau fibrils, preparation B (8 µM heparin, 22° C.) (from UniProt P10636 2-441)”, the EC50 (pM) of seeding, FRET flow cytometry in biosensor cell line came out at 4.3 pM and the Plateau (fold increase) of seeding, FRET flow cytometry in biosensor cell line (fold increase) came to 6.55.

As to “recombinant full-length (2N,4R) tau fibrils, preparation A (8 µM heparin, 37° C.) (from UniProt P10636 2-441)”, the EC50 (pM) of seeding, FRET flow cytometry in biosensor cell line is less than 1 pM and the Plateau (fold increase) of seeding, FRET flow cytometry in biosensor cell line (fold increase) is 6.67.

These data come from patent US20150126390A1.
